Where a chain is given by its changes, count along the chain named.
Experiments:
mouse sRAGE = mouse sRAGE (mouse, UniProt Q62151 23-340, limits assumed); assay: ELISA, O.D. 450 nm, one bar per species; plate format and antibody concentration not given
rat sRAGE = rat sRAGE (rat, UniProt Q63495 23-341, limits assumed); assay: as above
[1] = target: T1, sRAGE (V-C1-C2) lot LP08062 (human, UniProt Q15109 23-331, limits assumed); assay: SPR (Biacore), mAb captured on anti-mouse Fc, sRAGE 15 nM, Langmuir 1:1
T1 construct: domain: V-C1-C2; also called Human RAGE; LP08062 (Rage)
Protocol: The assay is based on a capture assay using immobilized anti-mouse Fc IgG on CM5 chip. For immobilization of anti-Fc antibody HBS-EP was used as running buffer. Standard amine coupling to a CM5 chip was carried out at a contact time of 11 min and a flow rate of 10 μl/min. 10 mM Sodium Acetate pH 5.0 was used as immobilization buffer. The protein concentration (anti-mouse Fc, Biacore BR-1008-38) was 100 μg/mL.
For binding analysis SN anti-RAGE mAb diluted in running buffer at 1/10 (flow rate 5 μl/min) and sRAGE (V-C1-C2) lot LP08062 diluted in running buffer at 15 nM (flow rate 50 μl/min) was used as […], respectively (running buffer: HBS-P+BSA 12 mg/mL+CM Dextran 12 mg/mL and Regeneration solution: 10 mM Glycine pH 1.7). Langmuir 1:1 analysis was used as fitting model.

RAGE C2 domain = target: T2, RAGE C2 domain (UniProt Q15109 235-327, limits assumed); assay: domain mapping, Table 1
T2 construct: domain: C2 domain

RAGE-Fc = target: T3, RAGE-Fc (human, UniProt Q15109 23-344, limits assumed); assay: competition ELISA against S100A6, mAb 10 µg/mL
T3 construct: also called hRAGE; not shown: Fc part, detected with anti-hIgG Fc-specific conjugate
Protocol: For the S100A6 Competition ELISA Assay wells have been coated with S100A6 at 0.5 μg/well. Thereafter, RAGE-Fc at 10 μg/mL and competing mAb at 10 μg/mL have been pre-incubated at room temperature for 30 min. The mixture was transferred into S100A6-coated plates and incubated under agitation at room temperature for 2 hours. Bound RAGE-Fc was detected with anti-hIgG Fc-specific-POD using TMB (3, 3′, 5, 5′-Tetramethylbenzidine) at 450 nm.

Sequence of rat sRAGE (Q63495 23-341 limits assumed): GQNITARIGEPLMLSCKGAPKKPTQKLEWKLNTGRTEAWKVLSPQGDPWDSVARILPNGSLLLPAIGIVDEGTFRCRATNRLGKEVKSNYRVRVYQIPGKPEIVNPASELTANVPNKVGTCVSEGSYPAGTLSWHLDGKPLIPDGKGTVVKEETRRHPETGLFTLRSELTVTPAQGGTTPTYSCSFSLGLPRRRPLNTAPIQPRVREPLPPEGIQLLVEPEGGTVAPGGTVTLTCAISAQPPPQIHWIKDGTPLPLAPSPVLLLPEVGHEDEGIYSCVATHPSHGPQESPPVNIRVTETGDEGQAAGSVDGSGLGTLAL
Sequence of mouse sRAGE (Q62151 23-340 limits assumed): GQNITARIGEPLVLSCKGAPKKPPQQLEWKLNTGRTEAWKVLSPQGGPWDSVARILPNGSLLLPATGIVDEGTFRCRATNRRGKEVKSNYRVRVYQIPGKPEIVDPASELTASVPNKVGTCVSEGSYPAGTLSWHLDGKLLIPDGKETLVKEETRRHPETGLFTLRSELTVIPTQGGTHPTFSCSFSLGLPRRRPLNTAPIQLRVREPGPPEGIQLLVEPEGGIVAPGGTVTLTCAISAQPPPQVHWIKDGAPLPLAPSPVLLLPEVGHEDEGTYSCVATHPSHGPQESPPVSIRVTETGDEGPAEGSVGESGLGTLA
T1 sequence (Q15109 23-331 limits assumed): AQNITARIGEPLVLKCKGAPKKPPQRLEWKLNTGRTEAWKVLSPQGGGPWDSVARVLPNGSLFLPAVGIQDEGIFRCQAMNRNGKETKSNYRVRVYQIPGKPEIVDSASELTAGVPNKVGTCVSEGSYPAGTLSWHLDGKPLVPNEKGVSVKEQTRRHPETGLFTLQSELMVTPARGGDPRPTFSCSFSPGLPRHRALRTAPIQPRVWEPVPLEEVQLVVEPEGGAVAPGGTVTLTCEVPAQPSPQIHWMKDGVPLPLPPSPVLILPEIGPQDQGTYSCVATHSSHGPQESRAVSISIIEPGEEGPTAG
T2 sequence (Q15109 235-327 limits assumed): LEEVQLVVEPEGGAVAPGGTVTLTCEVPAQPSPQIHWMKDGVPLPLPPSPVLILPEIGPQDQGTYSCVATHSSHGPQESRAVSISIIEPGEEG
T3 sequence (Q15109 23-344 limits assumed): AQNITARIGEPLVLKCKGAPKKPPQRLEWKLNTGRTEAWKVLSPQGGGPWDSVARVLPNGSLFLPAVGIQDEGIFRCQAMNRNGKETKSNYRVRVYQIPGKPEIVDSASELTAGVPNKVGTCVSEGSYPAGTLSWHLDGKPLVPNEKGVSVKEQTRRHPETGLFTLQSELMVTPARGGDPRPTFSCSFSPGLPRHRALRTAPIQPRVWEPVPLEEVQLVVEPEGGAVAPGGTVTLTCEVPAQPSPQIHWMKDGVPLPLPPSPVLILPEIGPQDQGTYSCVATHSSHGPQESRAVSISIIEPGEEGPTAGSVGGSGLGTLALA

B1: 130 RAGE-1 (antibody, V domains shown)
VH: EVQLVESGGGLVKPGGSLKLSCAASGFTFSSYVMSWVRQSPEKRLEWVAEISSGGSYTYYPDTVTGRFTISRDNDKNTLYLEMSSLRSEDTAMYYCARPPYGKDAMDYWGQGTSVTVSS
VL: QIVLTQSPAIMSASPGEKVTMTCSASSSVSYMHWYQQKSGTSPKRWISDTSKLASGVPARFSGSGSGTSYSLTISSMEAEDAATYYCQQWSSNPPTFGGGTKLEIK
notes: Anti-RAGE monoclonal antibody from a hybridoma, captured by anti-mouse Fc; also called Protein 130 RAGE-1
B1 was tested, and the binding result (mouse sRAGE) was “no binding (tested: not given)”, the binding result (rat sRAGE) was “no binding (tested: not given)” and the Kd [1] was 0.236 nM. The koff [1] was 0.00136 s⁻¹ and the kon [1] was 5.76e+06 M⁻¹ s⁻¹.

B2: 347 RAGE-1 (antibody, V domains shown)
VH: QVQLQQSGAELAKPGASVKMSCRASGYTFTDYWMHWVKQRPGQGLEWIGFINPSTVYTEYIPKFKDKATLTADKSSSTAYMQLSSLTSEDSAVYYCARSDGGWYFDVWGAGTTVTVSS
VL: DIQMTQSSSYLSVSLGGRVTITCKASDRINYWLAWYQQKPGNAPRLLISGATTLETGVPSRFSGSGSGKDYTLSITSLQTEDVATYYCQQYWSTPYTFGGGTKLELK
notes: Anti-RAGE monoclonal antibody from a hybridoma, captured by anti-mouse Fc
With B2 the binding result (mouse sRAGE) was “no binding (tested: not given)”, the binding result (rat sRAGE) was “no binding (tested: not given)” and the Kd [1] was 0.666 nM. It also gave a koff [1] of 0.00227 s⁻¹ and a kon [1] of 3.41e+06 M⁻¹ s⁻¹.

B3: 173 RAGE-1 (antibody, V domains shown)
VH: EVKLEESGGGLVQPGGSMKLSCVASGFTFSNYWMNWVRQSPEKGLEWVAEIRLKSNNYATHYAESVKGRFTISRDDSKSSVYLQMNDLRAEDPGIYYCIRDYGNYAMDHWGQGTSVTVSS
VL: DIVMTQSQKFMSTSVGDRVSVTCKASQNVGTNVAWYQQKPGQSPKALIYSASYRYSGVPDRFTGSGSGTDFTLTISNVQSEDLAEYFCQQYNSYPLTFGAGTKLELK
notes: Anti-RAGE monoclonal antibody from a hybridoma, captured by anti-mouse Fc; also called LP08107
B3: no binding (RAGE C2 domain); no binding (tested: not given) (mouse sRAGE); no binding (tested: not given) (rat sRAGE). For the same binder, the Kd [1] was 0.678 nM, the koff [1] was 0.00227 s⁻¹ and the kon [1] was 3.35e+06 M⁻¹ s⁻¹.

B4: 250 RAGE-1 (antibody, V domains shown)
VH: B3 VH with D87N, P93T, Y97F, H109Y
VL: B3 VL with Y86F
notes: Anti-RAGE monoclonal antibody from a hybridoma, captured by anti-mouse Fc; also called Protein 250 RAGE-1
B4 was tested, and the binding result (mouse sRAGE) was “no binding (tested: not given)”, the binding result (rat sRAGE) was “no binding (tested: not given)” and the Kd [1] was 0.556 nM. For the same binder, the koff [1] was 0.00199 s⁻¹ and the kon [1] was 3.58e+06 M⁻¹ s⁻¹.

B5: 259 RAGE-1 (antibody, V domains shown)
VH: QVQLQQSGAELVRPGTSVKVSCKASGYAFTNYLIDWVNQRPGQGLEWIGVINPGSGGTNYNEKFTGKATLTADKSSSTAYMQLSSLTSDDSAVYFCARRRVDTMDYWGQGTSVTVSS
VL: QAVVTQESALTTSPGETVTLTCRSSTGAVTTSNYANWVQEKPDHLFTGLIGGTNNRAPGVPARFSGSLIGDKAALTITGAQTEDEAIYFCALWYSNHWVFGGGTKLTVL
notes: Anti-RAGE monoclonal antibody from a hybridoma, captured by anti-mouse Fc; also called Protein 259 RAGE -1
With B5 the Kd [1] was 0.516 nM, the koff [1] was 0.00224 s⁻¹ and the kon [1] was 4.34e+06 M⁻¹ s⁻¹.

B6: 95 RAGE-1 (antibody, V domains shown)
VH: QVQLQQPGAELVKPGASVKLSCKASGYTFTSYWMHWVKQRPGQGLEWIGESNPSNGRTNYNEKFKNKATLTVDKSSSTAYMQLSSLTSEDSAVYYCARAPYYGFDYWGQGTTLTVSS
VL: B5 VL with I50T
notes: Anti-RAGE monoclonal antibody from a hybridoma, captured by anti-mouse Fc; also called Protein 95 RAGE-1
B6 showed a Kd [1] of 0.462 nM, a koff [1] of 0.00123 s⁻¹ and a kon [1] of 2.66e+06 M⁻¹ s⁻¹.

B7: 529 RAGE-1 (antibody, V domains shown)
VH: EIQLQQTGPELVKPGASVKISCKASGYSFTDYIMLWVKQSHGKSLEWIGNINPYYGSTFYNLKFKGKATLTVDKSSSTAYMQLNSLTSEDSAVYYCARSDYWYFDVWGAGTTVTVSS
VL: B5 VL with A57S, W98L
notes: as for B2
B7 showed a Kd [1] of 0.552 nM, a koff [1] of 0.00169 s⁻¹ and a kon [1] of 3.06e+06 M⁻¹ s⁻¹.

B8: 501-4 RAGE-1 (antibody, V domains shown)
VH: EVMLVDSGGGLVKPGGSLKLSCAASGFTFRSYAMSWVRQTPEKRLEWVATISSGGSYTYYPDSVRGRFTTSRDNGKNTLYLQMSSLRSEDTAMYYCARHGGNYSAWFTYWGQGTLVTVSA
VL: B5 VL with G59D
notes: as for B2
Binder B8 has a Kd [1] of 0.0858 nM, a koff [1] of 0.000103 s⁻¹ and a kon [1] of 1.2e+06 M⁻¹ s⁻¹.

B9: 283 RAGE-1 (antibody, V domains shown)
VH: QVQLQQSGAELVRPGTSVKVSCKASGYAFTNYLIEWVKQRPGQGLEWIGVINPGSGGTNYSERFKGKATLTADKSSSTAYMQLSSLTSDDSAVYFCASYRYDGGMDYWGQGTSVTVSS
VL: B5 VL with G51R
notes: Anti-RAGE monoclonal antibody from a hybridoma, captured by anti-mouse Fc; also called Protein 283 RAGE-1
B9 was tested, and the Kd [1] was 0.371 nM, the koff [1] was 0.00196 s⁻¹ and the kon [1] was 5.29e+06 M⁻¹ s⁻¹.

B10: 183 RAGE-1 (antibody, V domains shown)
VH: EVQLQQSGTVLARPGASVKMSCKASGYSFTSYWMHWVKQRPGQGLEWIGAIFPGNSDTTYNQKFKGKAKLTAVTSASTAYMELSSLTNEDSAVYYCTGLRRGFPYWGQGTLVTVSV
VL: NIVMTQSPKSMSMSVGERVTLSCKASENVGTYVSWYQQKPEQSPKLLIYGASNRYTGVPDRFTGSGSATDFTLTISSVQAEDLADYHCGQSYSYPYTFGGGTKLEIK
notes: Anti-RAGE monoclonal antibody from a hybridoma, captured by anti-mouse Fc; also called Protein 183 RAGE-1
B10 showed a Kd [1] of 1.73 nM, a koff [1] of 0.00273 s⁻¹ and a kon [1] of 1.58e+06 M⁻¹ s⁻¹.

B11: 140 RAGE-1 (antibody, V domains shown)
VH: QVQLQQPGAELVKPGASVRLSCKASGYTFTSYWMHWVKQRPGQGLEWIGEINPSNGRTNYNEKFKSKATLTVDKSSSTAYMQLSSLTSEDSAVYYCARDGLGYRPIAMDYWGQGTSVTVSS
VL: QIVLTQSPAIMSASPGEKVTISCSASSSVSYMYWYQQKPGSSPKPWIYRTSNLASGVPARFSGSGSGTSYSLTISSMEAEDAATYYCQQYHSYPPMYTFGGGTKLEIK
notes: Anti-RAGE monoclonal antibody from a hybridoma, captured by anti-mouse Fc; also called Protein 140 RAGE-1
B11 showed a Kd [1] of 0.303 nM, a koff [1] of 0.00157 s⁻¹ and a kon [1] of 5.19e+06 M⁻¹ s⁻¹.

B12: 499 RAGE-1 (antibody, V domains shown)
VH: EVQLQQSGTVLARPGASVKMSCKASGYTFTSYWMHWVKQRPGQGLEWIGAIYPGDSDTYYNQKFKGKAKLTAVTSTSTAYMELSSLTNEDSAVYYCTRNWDYWGQGTTLTVSS
VL: DIVMTQSHKFMSTSVGDRVSITCKASQDVSTAVAWYQQKPGQSPKLLIYSASYRYTGVPDRFTGSGSGTDFTFTISSVQAEDLAVYYCQQHYNTPRTFGGGTKLEIK
notes: Anti-RAGE monoclonal antibody from a hybridoma, captured by anti-mouse Fc; also called Protein 499 RAGE-1
With B12 the Kd [1] was 0.793 nM, the koff [1] was 0.00157 s⁻¹ and the kon [1] was 1.98e+06 M⁻¹ s⁻¹.

B13: 210 RAGE-1 (antibody, V domains shown)
VH: EIQLQQTGPELVKPGASVKISCKASGYSFTDYIMVWVKQSHGKSLEWIGTINPYYGSTSYNLKFKGKATLTVDKSSSTANMQLNSLTSEDSAVYYCARLRLYAMDYWGQGTSVTVSS
VL: QAVVTQESALTTSPGETVTLTCRSSTGAVTTSNYANWVQEKPDHLFTGLIGGTNNRAPGVPARFSGSLIGDKAALTITGAQTEDEAIYFCALWYSNHFWVFGGGTKLTVL
notes: Anti-RAGE monoclonal antibody from a hybridoma, captured by anti-mouse Fc; also called Protein 210 RAGE-1
B13 gave a Kd [1] of 0.276 nM, a koff [1] of 0.00107 s⁻¹ and a kon [1] of 3.88e+06 M⁻¹ s⁻¹.

B14: 152 RAGE-1 (antibody, V domains shown)
VH: DVQLQESGPDLVKPSQSLSLTCTVTGYSITSGYSWHWIRQFPGNKLEWMGYIHYSGSTNYNPSLKSRISITRDTSKNQFFLQLNSVTTEDTATYYCARGGDFAYWGQGTLVTVSA
VL: DIVLTQSPASLAVSLGQRATISCRASKSVGTSDSSYMHWYQQKPGQPPKLLIYLASNLESGVPARFSGSGSGTDFTLNIHPVEEEDAATYYCQHSRELYTFGGGTKLEIK
notes: Anti-RAGE monoclonal antibody from a hybridoma, captured by anti-mouse Fc; also called LP08104; Protein 152 RAGE-1
For B14, the inhibitory effect (RAGE-Fc) was > 20%, the binding result (RAGE C2 domain) was “no binding” and the Kd [1] was 0.687 nM. It also gave a koff [1] of 0.00265 s⁻¹ and a kon [1] of 3.86e+06 M⁻¹ s⁻¹.

B15: 316 RAGE-1 (antibody, V domains shown)
VH: QVQLQQSGPELVRPGASVKMSCKASGYTFTSYWMHWVKQRPGQGLEWIGMIDPSNSETRLNQKFKDKATLNVDKSSNTAYMQLSSLTSEDSAVYYCARNFYGSSLRVWGAGTTVTVSS
VL: DIVLTQSPASLAVSLGQRATISCRASKSVSISGYSYLHWNQQKPGQSPKLLIYLASNLESGVPARFSGSGSGTDFTLNIHPVEEEDAATYYCQHSRELPYTFGGGTKLEIK
notes: Anti-RAGE monoclonal antibody from a hybridoma, captured by anti-mouse Fc; also called Protein 316 RAGE-1
With B15 the binding result (mouse sRAGE) was “no binding (tested: not given)”, the binding result (rat sRAGE) was “no binding (tested: not given)” and the Kd [1] was 0.319 nM. The koff [1] was 0.00177 s⁻¹ and the kon [1] was 5.54e+06 M⁻¹ s⁻¹.

B16: 184 RAGE-1 (antibody, V domains shown)
VH: QVQLQQSGAELVRPGTSVKVSCKASGYAFTNYLIEWVKQRPGQGLEWIGMINPGSGGTNYNEKFKGKATLTADKSSSTAYMQLSSLTSDDSAVYFCARGRGGHYRYFDVWGAGTTVTVSS
VL: B15 VL with I31T, L37M, N40Y, S47P, N57H, T76S, Y100W
notes: Anti-RAGE monoclonal antibody from a hybridoma, captured by anti-mouse Fc; also called Protein 184 RAGE-1
With B16 the Kd [1] was 0.595 nM, the koff [1] was 0.00163 s⁻¹ and the kon [1] was 2.74e+06 M⁻¹ s⁻¹.
